For three substances, stoichiometry N and Kd results are on record in publication PMC7431520.

As usually defined, the stoichiometry N is the number of molecules, sites or subunits per partner or assembly. A word on the Kd: it is a measure of binding affinity in units of concentration.

Assay [1] concerns the target natural LAL2 protein (Lampetra japonica). Briefly: SDS-PAGE and western blot band identified by LC-MS/MS; lamprey serum on 12% SDS-PAGE, blot with rabbit anti-LAL2 antibody; band around 40 kDa analysed by LC-MS/MS of tryptic peptides. (In general: Immunoblotting shows a protein as a band on a membrane.)
In assay [2] the target is lamprey immune protein (LIP) (Lampetra japonica). Briefly: SPR; LIP coupled to a CM5 chip (NHS/EDC, buffer pH 4.0, blocked with ethanolamine); analyte (rLAL2 or TRX) at different concentrations in HBS-EP; Biacore T200; affinity kinetics fitting. On the technique in general: Surface plasmon resonance follows binding to a sensor surface in real time, without labels.
Assay [3] addresses recombinant LAL2 (rLAL2) protein (Lampetra japonica). Briefly: SPR; rLAL2 coupled to a CM5 chip (NHS/EDC, buffer pH 4.0, blocked with ethanolamine); LIP as analyte at different concentrations in HBS-EP; Biacore T200; affinity kinetics fitting.

In turn, natural LAL2 protein (natural protein) returned a stoichiometry N in assay [1] of 2.

“recombinant LAL2 (rLAL2) protein (natural protein)”: the Kd in assay [2] turned out to be 55.8 nM. As for “lamprey immune protein (LIP) (natural protein)”, in assay [3], the Kd turned out to be 21.1 nM.
